Reference: US10912815B2, “Inhibitors of mitochondrial fission and methods of use thereof” (The Board of Trustees of the Leland Stanford Junior …, priority 2011, dated 2021)

Target: T1, Drp1 association with the mitochondria (Homo sapiens, UniProt O00429)
T1 construct: GST (N); host or cells: recombinant GST-Drp1 of unstated origin; mitochondria from mouse liver tissue
Test: Association of recombinant Drp1 (GST-Drp1) with isolated mouse liver mitochondria
Type: binding
Conditions: peptide 1 μM, GST-Drp1, FIG. 2C
Method: If the peptides designed do represent PPI surfaces between Drp1 and Fis1, the peptides should inhibit the association of Drp1 with the mitochondria. To obtain isolated mitochondria, SH-5YSH cells were washed with cold phosphate-buffered saline (PBS) and incubated on ice in lysis buffer (250 mM sucrose, 20 mmol/L HEPES-NaOH, pH 7.5, 10 mmol/L KCl, 1.5 mmol/L MgCl2, 1 mmol/L EDTA, protease inhibitor cocktail, phosphatase inhibitor cocktail) for 30 minutes. Cells were scraped and then disrupted 10 times by repeated aspiration through a 25 gauge needle, followed by a 30 gauge needle. Mouse liver tissue was minced and ground by pestle in lysis buffer. The homogenates were spun at 800 g for 10 min at 4° C. and the resulting supernatants were spun at 10,000 g for 20 minutes at 4° C. The pellets were washed with lysis buffer and spun at 10,000 g again for 20 minutes at 4° C. The final pellets were suspended in lysis buffer containing 1% Triton X-100 and were mitochondrial-rich lysate fractions.
Mitochondria isolated from mouse liver were incubated with recombinant Drp1 (GST-Drp1). Drp1 bound to mitochondrial preparation and only P110 (1 μM) reduced this association by >60% (p<0.01, FIG. 2C); peptide carrier TAT47-57 or the other Drp1-derived peptides had no effect. The mitochondrial membrane protein VDAC was used as marker and loading control.

T1 sequence (O00429 1-710 isoform O00429-3): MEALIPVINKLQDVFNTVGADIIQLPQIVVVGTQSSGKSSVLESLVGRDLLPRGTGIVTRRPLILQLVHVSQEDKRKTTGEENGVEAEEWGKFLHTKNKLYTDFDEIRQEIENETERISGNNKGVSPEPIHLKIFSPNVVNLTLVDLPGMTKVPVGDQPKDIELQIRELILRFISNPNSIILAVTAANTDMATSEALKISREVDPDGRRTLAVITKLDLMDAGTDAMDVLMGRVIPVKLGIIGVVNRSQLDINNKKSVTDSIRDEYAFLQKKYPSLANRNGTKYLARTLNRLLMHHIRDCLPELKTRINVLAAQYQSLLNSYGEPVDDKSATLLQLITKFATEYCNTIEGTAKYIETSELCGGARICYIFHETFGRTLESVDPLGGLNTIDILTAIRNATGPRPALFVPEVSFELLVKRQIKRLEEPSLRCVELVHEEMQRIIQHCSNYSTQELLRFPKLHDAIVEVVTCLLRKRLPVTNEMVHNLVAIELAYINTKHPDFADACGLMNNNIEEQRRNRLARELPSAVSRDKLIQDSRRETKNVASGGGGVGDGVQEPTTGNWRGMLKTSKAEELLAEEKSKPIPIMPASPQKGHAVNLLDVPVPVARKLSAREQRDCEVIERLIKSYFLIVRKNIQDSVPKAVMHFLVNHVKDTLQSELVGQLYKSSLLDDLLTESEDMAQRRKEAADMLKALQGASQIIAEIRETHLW

## TAT47-57: cell permeating TAT protein-derived peptide carrier, used alone as control peptide
  reduction of association of Drp1 with mitochondrial preparation: no effect
